According to publication PMC8906423:
Values joined by “and” are separate entries in the source; they are usually repeats but may differ in a detail not shown here. Equal entries are not always repeated.

Key:
[1] = target: RBDA7-S chimera (H77c E2 RBD with 7 Cys-to-Ala mutations fused to the N terminus of DHBV S antigen) (hepatitis C virus genotype 1a, H77c | duck hepatitis B virus) (UniProt P27958); experiment: co-sedimentation + other: quantitative Western blot; gradient-purified VLP preparations; amount and proportion of E2 and S within VLPs quantified with Image Studio software; 4 consecutive preps
[2] = target: Δ123A7-S chimera (H77c E2 Δ123 with 7 Cys-to-Ala mutations fused to the N terminus of DHBV S antigen) (hepatitis C virus genotype 1a, H77c | duck hepatitis B virus) (UniProt P27958); experiment: as above

duck hepatitis B virus (DHBV) small surface antigen (S) (natural protein)
stoichiometry N (mol S per mol RBDA7-S) [1]: 4 and 10 and 7 | stoichiometry N (mol S per mol Δ123A7-S) [2]: 2 and 4
